In publication PMC3612955:

Molecular target: actin (untreated, of the in vitro assays of Fig. 1) (UniProt P68135)

Sequence of Mical (Q86BA1 whole entry): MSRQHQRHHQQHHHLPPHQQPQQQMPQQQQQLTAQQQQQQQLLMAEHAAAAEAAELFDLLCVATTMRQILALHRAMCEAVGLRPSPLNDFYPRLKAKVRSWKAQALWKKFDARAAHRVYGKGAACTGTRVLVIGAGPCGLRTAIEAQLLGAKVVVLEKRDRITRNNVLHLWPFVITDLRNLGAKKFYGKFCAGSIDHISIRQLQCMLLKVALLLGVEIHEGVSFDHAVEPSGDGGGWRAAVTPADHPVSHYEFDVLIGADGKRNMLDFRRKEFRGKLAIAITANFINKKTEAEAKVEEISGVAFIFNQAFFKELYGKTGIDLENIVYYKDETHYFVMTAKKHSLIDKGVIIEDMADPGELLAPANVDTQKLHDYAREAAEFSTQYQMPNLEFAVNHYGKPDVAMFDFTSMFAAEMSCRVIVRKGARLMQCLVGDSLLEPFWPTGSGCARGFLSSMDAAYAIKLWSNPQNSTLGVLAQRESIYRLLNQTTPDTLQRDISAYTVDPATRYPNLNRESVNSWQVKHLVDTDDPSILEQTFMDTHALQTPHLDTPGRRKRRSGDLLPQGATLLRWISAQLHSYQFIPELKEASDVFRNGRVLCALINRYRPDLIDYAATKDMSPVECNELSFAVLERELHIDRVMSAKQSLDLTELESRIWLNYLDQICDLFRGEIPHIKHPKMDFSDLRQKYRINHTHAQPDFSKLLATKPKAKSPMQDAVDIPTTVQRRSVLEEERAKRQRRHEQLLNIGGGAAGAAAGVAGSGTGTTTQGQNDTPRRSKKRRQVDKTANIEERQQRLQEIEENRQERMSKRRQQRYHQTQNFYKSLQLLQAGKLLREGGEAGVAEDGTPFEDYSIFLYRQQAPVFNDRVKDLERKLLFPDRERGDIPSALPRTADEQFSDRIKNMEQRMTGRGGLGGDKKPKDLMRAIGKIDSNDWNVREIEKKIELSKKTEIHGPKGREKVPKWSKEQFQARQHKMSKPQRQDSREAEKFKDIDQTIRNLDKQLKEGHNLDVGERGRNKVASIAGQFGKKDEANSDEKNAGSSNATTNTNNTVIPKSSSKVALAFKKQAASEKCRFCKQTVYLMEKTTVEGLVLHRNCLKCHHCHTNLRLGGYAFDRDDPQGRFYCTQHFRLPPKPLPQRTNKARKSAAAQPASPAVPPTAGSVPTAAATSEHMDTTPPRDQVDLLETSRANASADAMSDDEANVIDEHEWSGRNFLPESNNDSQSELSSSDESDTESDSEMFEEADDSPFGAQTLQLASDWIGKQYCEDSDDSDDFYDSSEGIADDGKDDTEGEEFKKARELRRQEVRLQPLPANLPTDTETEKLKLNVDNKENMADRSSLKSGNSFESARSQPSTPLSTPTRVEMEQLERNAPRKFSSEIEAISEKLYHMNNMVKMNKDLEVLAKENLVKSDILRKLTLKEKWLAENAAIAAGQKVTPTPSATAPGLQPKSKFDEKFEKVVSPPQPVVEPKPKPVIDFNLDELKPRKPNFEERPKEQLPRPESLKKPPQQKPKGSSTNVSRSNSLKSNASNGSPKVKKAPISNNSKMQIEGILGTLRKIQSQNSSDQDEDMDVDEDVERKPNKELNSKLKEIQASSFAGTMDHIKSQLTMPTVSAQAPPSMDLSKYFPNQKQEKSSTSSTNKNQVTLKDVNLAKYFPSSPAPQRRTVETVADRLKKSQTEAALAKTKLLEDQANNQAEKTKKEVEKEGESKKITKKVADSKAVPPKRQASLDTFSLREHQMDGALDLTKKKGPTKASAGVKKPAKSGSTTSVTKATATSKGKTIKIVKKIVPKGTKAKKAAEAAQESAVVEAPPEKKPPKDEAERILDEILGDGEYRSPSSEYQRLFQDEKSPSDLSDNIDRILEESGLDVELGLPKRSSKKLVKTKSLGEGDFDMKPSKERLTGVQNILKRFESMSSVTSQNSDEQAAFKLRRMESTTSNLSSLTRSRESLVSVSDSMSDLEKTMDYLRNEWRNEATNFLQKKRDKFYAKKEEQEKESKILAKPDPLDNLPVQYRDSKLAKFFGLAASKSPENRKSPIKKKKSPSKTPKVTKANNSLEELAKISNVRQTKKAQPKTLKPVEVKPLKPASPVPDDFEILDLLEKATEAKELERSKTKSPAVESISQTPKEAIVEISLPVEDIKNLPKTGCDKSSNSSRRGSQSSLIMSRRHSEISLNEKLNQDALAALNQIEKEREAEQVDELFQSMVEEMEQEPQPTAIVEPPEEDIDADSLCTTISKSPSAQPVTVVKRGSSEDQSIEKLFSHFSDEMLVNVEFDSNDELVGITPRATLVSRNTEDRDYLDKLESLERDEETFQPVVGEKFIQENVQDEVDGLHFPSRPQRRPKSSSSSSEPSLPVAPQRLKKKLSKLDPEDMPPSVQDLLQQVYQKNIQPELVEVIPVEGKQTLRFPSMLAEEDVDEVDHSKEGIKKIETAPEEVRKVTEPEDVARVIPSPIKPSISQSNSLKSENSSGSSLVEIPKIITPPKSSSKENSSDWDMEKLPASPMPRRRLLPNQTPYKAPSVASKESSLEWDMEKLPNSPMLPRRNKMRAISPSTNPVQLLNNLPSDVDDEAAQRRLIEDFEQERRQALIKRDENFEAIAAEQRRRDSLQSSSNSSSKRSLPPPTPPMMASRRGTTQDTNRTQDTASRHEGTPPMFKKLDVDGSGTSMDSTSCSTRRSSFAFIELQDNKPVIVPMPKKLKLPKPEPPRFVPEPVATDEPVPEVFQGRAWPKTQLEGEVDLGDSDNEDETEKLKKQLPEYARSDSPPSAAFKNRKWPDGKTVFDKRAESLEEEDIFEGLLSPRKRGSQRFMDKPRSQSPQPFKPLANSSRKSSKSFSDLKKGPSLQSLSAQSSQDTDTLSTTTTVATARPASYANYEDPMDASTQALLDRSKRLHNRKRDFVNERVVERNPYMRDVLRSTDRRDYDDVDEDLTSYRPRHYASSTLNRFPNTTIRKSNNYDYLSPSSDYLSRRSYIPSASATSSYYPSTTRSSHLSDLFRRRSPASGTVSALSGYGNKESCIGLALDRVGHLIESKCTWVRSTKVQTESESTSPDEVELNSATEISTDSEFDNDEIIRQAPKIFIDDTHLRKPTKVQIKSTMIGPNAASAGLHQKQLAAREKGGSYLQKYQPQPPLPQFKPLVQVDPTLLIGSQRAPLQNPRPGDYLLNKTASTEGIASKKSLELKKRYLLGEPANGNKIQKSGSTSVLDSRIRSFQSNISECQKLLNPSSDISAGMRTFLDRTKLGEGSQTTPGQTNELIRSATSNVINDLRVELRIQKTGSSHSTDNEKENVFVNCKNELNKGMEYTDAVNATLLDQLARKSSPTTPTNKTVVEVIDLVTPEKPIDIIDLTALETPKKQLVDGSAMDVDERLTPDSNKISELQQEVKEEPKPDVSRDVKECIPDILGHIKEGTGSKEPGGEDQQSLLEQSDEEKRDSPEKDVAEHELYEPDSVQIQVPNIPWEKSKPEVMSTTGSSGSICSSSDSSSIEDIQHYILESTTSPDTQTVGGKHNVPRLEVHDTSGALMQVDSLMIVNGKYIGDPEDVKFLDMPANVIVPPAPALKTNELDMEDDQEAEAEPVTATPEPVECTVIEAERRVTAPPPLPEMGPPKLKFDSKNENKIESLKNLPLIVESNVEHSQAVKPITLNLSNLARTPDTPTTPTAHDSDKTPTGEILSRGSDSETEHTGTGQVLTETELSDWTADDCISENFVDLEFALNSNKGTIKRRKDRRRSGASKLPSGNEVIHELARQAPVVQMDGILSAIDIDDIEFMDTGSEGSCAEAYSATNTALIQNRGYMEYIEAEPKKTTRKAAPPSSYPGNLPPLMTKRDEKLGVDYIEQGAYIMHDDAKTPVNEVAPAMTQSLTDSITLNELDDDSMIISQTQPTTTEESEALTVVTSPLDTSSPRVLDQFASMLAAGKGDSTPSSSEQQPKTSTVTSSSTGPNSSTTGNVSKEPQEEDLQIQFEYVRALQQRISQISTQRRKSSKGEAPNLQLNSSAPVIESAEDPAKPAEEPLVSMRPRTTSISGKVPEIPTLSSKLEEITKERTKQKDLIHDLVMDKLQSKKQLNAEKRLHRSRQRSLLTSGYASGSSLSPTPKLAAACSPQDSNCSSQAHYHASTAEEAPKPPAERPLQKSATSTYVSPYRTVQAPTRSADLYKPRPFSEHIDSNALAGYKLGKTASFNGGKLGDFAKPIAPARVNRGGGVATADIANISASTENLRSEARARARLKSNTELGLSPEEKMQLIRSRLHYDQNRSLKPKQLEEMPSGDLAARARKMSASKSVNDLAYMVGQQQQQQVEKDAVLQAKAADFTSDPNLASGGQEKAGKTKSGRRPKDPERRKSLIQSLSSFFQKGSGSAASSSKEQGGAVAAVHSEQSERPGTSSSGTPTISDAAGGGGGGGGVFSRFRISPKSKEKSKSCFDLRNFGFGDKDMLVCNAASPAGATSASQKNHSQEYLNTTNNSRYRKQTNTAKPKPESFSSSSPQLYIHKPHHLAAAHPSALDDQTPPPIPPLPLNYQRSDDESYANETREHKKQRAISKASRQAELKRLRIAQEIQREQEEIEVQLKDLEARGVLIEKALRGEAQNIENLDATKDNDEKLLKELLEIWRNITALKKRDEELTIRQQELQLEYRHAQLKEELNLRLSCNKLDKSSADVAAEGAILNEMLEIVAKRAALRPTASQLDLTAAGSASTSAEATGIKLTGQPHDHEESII

- Mical enzymatic activity (conversion of NADPH to NADP+) with F-actin: > 100 fold
Substance: Mical (from UniProt Q86BA1 1-4723) (enzyme)
